The values that follow come from patent US20220235140A1 (HEDGEHOG, published 2022).

This experiment deals with T1, human endothelin receptor type A (human, UniProt P25101 21-427, limits assumed).
T1 construct: Immobilized on plates coated with human Galpha-i3 such that its extracellular regions were selectively exposed; also called ETA
T1 sequence (looked up): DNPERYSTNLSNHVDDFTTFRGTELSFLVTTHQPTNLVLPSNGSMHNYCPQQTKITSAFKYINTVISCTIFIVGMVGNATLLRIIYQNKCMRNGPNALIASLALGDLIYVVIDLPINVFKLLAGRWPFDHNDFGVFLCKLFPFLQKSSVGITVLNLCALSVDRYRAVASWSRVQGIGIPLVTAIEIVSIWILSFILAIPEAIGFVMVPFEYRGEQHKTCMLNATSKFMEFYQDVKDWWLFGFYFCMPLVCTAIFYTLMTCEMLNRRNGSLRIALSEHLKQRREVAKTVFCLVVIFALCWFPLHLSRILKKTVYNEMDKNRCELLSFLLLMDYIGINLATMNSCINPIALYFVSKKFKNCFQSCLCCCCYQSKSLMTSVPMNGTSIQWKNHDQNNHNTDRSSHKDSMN
In words: ELISA, ETA immobilized via human Galpha-i3, antibody titrated. In general terms: In an ELISA, binding on a coated surface is turned into a signal by an enzyme label.

B1: AG8 (antibody, V domains shown)
VH: EVQLVESGAEVRKPGASVKVSCKASGYTFTSSDINWIRQATGQGLEWMGYMNPKNGNTDYAQKFQGRISMTRDSSISTAYMELSSLRSEDTAVYYCAKDRYGSGTYGFGMDVWGPGTLVT
VL: DIVMTQSPSAMSASVGDRVSITCRASQGINNYLAWFQQKPGKVPKRLMDVGSILQSGIPSRFRGRGSGTQFTLTISSLQAEDSGTYFCLQHNTYPLTFGPGTKVEIKR
One may read the Kd as the equilibrium constant for the complex coming apart. Lower therefore signals tighter binding. The molecule B1 came in with a dissociation constant (Kd) of 26.1 nM.
